The values below come from patent publication US20180079808A1.

For experiment [1], the target named is human IL-13 wild type (human) (UniProt P35225). Kind of experiment: column 'Affinity, KD (nM)', hIL-13wt; method not given.
For experiment [2] the target is unchanged.
For experiment [3], the target named is human IL-13 variant (R130Q) (human) (UniProt P35225).
The target of experiment [4] is cynomolgus monkey rIL-13 (cynomolgus monkey) (UniProt Q0PW92).
For experiment [5], the target named is human IL-13 variant (R130Q) (human) (UniProt P35225). Kind of experiment: column 'Affinity, KD (nM)', hIL-13v; method not given.

human IL-13 wild type (human), sequence (P35225 other isoform, or with tags, fused parts or gaps limits assumed): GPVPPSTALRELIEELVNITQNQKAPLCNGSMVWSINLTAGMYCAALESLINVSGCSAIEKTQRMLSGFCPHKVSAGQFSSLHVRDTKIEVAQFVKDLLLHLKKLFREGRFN
human IL-13 variant (R130Q) (human), sequence (P35225 35-146 limits assumed, stated change not applied): as the sequence (P35225 other isoform, or with tags, fused parts or gaps limits assumed) above, with R110Q counted along it
cynomolgus monkey rIL-13 (cynomolgus monkey), sequence (Q0PW92 entry or part of it): as the sequence (P35225 other isoform, or with tags, fused parts or gaps limits assumed) above, with G1S, R10K, M42V, S67N, H83R, L100V, R110Q counted along it

B1: 13C5, murine version (antibody, from another filing, V domains shown)
VH: QVTLKESGPGILQPSQTLSLTCSFSGFSLSTSDMGVDWIRQPSGKGLEWLAHIWWDDVKRYNPALKSRLTISKDTSSSQVFLMLASVDTADTATYYCARTVSSGYIYYAMDYWGQGTSVTVSS
VL: DIQMTQTASSLSASLGDRVTISCRASQDIRNYLNWYQRKPDGTVKLLIFYTSKLHSGVPSRFSGSGSGTDYSLTIRNLEQEDIATYFCQQGNTLPLTFGGGTKLEIKR
As for B1, the equilibrium dissociation constant (Kd) came to 0.075 nM in experiment [1] and 0.076 nM in experiment [5]. The molecule also showed a Potency, IC50 (neutralisation of hIL-13wt; assay not given) in experiment [2] of 0.19 nM. The molecule also showed a Potency, IC50 (neutralisation of hIL-13v; assay not given) in experiment [3] of 0.17 nM. This molecule also gave a Potency, IC50 (neutralisation of Cyno IL-13; assay not given) in experiment [4] of 0.9 nM.

In general, Kd refers to a measure of binding affinity in units of concentration.
